Measurements published in US8173604B2, “Inhibition of Skp2-cyclin a interaction” (Albert Einstein College of Medicine of Yeshiva University, priority 2006, dated 2012).

Assays:
p27-cyclin A interaction = biological target: T1, p27-cyclin A interaction (Homo sapiens, UniProt P20248); experiment: GST pull-down, blocking of p27-cyclin A interaction; type: binding; conditions: GST-p27, myc-cyclin A/Cdk2 transfected 293T cell extracts
T1 construct: expressed in transfected cells; host or cells: 293T (cyclin A/Cdk2)
Experimental: (§1) GST pull down, p27 ubiquitylation assay, and cyclin A kinase assay. GST fusion proteins were purified on GSH-beads (Amersham), which were then incubated with transfected cell extracts for 1 hour in 4° C. with rocking. The beads were washed three times with lysis buffer (25 mM Hepes pH 7.6, 100 mM KCl, 0.1 mM EDTA, 10 mM MgCl2, 0.1% NP-40, 10% glycerol, 1 mM DTT) before analysis by SDS-PAGE and Western blotting.
Skp2-cyclin A interaction and p27-cyclin A interaction can be blocked by distinct peptides. An important aspect of the RxL-1-IP interaction is that it can be blocked by a short RxL peptide (Adams et al., 1996). If the Skp2-cyclin A/Cdk2 interaction and the p27-cyclin A/Cdk2 interaction are mediated by different sequences on both sides of the interaction, as shown above, it can be predicted that the RxL peptide should not block Skp2-cyclin A interaction. […] Peptide concentrations required for their respective blocking activities were similar for RxL and 4060 peptides.
Skp2 competes with p27/p21, but not E2F1, for binding to cyclin A. Whether the apparently distinct Skp2-cyclin A interaction and p27-cyclin A interaction are competitive against each other was next evaluated. […] Whether the competition between Skp2 and p27/p21 for cyclin A binding could be observed in vivo with endogenous proteins under physiological conditions was next determined. […]

[1] = biological target: T2, GST-p21 binding to cyclin A/Cdk2 (Homo sapiens, UniProt P20248); experiment: GST pull-down, competition with GST-p21 for binding to cyclin A/Cdk2; conditions: increasing amounts of Skp2N
T2 construct: expressed in transfected cells; host or cells: 293T (cyclin A/Cdk2); The GST-p21 plasmid was a gift and the fusion was purified on GSH beads
Experimental: as §1
Skp2 competes with p27/p21, but not E2F1, for binding to cyclin A. Whether the apparently distinct Skp2-cyclin A interaction and p27-cyclin A interaction are competitive against each other was next evaluated. […] Skp2N also competed with GST-p21 for binding to cyclin A/Cdk2 (FIG. 6A right). Whether the competition between Skp2 and p27/p21 for cyclin A binding could be observed in vivo with endogenous proteins under physiological conditions was next determined. Since abundant amounts of cyclin A are already bound by Skp2 and very little is bound by p27 or p21 in various cell lines (unpublished results), this issue was addressed from the other direction of competition by testing whether p27/p21 could compete Skp2 away from cyclin A. For this purpose, we treated U2OS cells with actinomycin D to activate p53, which led to a significant increase in p21 protein levels.

E2F1-cyclin A binding = biological target: T3, E2F1-cyclin A binding (Homo sapiens, UniProt P20248); experiment: GST pull-down, competition for E2F1-cyclin A binding
T3 construct: expressed in transfected cells; host or cells: 293T (cyclin A/Cdk2); The GST-E2F1 plasmid was a gift and the fusion was purified on GSH beads
Experimental: as §1
Whether Skp2 competes with another RxL protein, E2F1, for cyclin A binding (Krek et al., 1994) was next determined.

cyclin A/Cdk2 = biological target: T4, cyclin A/Cdk2 (Homo sapiens, UniProt P20248+P24941); experiment: In vitro cyclin A/Cdk2 kinase assay with purified proteins (GST-Rb-C substrate); type: biochemical; conditions: 80 nM protein added to p27-containing kinase reaction
T4 construct: made in house; host or cells: insect cells (baculovirus)
Experimental: Cyclin A/Cdk2 kinase assays were performed as described previously (Ji et al., 2004). Both immuno-purified myc-cyclin A/Cdk2 on beads and GST-purified and eluted GST-cyclin A/Cdk2 (baculovirus vectors for GST-cyclin A and Cdk2 were provided by Brian Dynlacht) were used. The amounts of purified proteins were determined by comparing them with known amounts of standard proteins in Coomassie blue stained gels. Phosphorylation of GST-Rb-C was quantified with the ImageQuant software. The Ki of various proteins was determined by non-linear least squares analysis. […] Actual amounts of proteins in 7.5×10^4 HeLa cells were then determined (for example, the amounts of p27, Skp2, and cyclin A in 7.5×10^4 HeLa cells were determined to be about 0.1, 0.2, and 0.1 pmoles, respectively, at 14 hours post-replating; and about 0.01, 0.1, and 1.0 pmoles, respectively, at 19 hours post-replating).
For kinase reactions, insect cell-produced and purified GST-cyclin A/Cdk2 was used at a concentration of ˜3 nM, which was the lowest concentration that yielded readily detectible phosphorylation of GST-Rb-C here. […] Phosphorylation of Rb-C was measured and plotted, and the Ki of these various proteins were determined by non-linear least squares analysis (FIG. 7F). […]
It was then determined whether the 4060 peptide could prevent Skp2N from protecting cyclin A/Cdk2 from inhibition by p27. […]

Blocking of p27-cyclin A interaction (p27-cyclin A interaction): progressively diminished
Competition with GST-p21 for binding to cyclin A/Cdk2 [1]: competed
Effect on E2F1-cyclin A binding (E2F1-cyclin A binding): did not affect
Protection of cyclin A/Cdk2 from inhibition by p27 (cyclin A/Cdk2): completely reversed
B1: Skp2N: Skp2 N-terminus (N terminal 100 residues), GST cleaved (protein)
chain: MHVFKTPGPADAMHRKHLQEIPDLSSNVATSFTWGWDSSKTSELLSGMGVSALEKEEPDSENIPQELLSNLGHPESPPRKRLKSKGSDKDFVIVRRPKLN
modifications: left off: a dimerising Fc or GST
notes: Skp2 N-terminus (N terminal 100 residues), GST cleaved
